Positions count from the first letter of the chain named.

Sequences and labels used below:
T1: human CD180/human MD-1 on HEK293 cells (human, UniProt Q99467 24-661; O95711 21-162)
T1 construct: whole, on cells; Complex co-expressed on HEK293 cells; also called HEK293 expressing CD180/MD-1; HEK293 CD180/MD-1 cells
T1 sequence (looked up) 1: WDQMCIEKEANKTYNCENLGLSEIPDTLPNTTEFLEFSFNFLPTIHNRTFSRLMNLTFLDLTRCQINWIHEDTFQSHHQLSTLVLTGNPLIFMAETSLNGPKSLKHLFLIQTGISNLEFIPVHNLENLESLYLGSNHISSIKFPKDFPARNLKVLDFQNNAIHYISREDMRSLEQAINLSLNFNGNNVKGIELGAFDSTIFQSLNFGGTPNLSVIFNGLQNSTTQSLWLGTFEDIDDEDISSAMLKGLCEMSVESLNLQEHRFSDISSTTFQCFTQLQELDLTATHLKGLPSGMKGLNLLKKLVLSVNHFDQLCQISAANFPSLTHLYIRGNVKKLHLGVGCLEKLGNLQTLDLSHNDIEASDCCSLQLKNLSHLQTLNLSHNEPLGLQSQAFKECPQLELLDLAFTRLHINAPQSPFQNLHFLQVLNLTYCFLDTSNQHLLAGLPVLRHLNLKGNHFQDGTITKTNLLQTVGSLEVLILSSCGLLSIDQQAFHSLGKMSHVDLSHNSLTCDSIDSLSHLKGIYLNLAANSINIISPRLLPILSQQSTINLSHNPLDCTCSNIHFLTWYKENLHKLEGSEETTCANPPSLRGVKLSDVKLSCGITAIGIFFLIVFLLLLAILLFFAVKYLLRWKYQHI
T1 sequence (looked up) 2: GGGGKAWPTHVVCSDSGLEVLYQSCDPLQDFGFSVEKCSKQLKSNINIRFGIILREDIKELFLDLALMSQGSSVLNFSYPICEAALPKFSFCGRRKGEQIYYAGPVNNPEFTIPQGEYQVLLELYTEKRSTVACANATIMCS

T2: human CD180 extracellular domain (ECD) HIS-tagged protein (Sino Biological, 11370-H08H) (human, UniProt Q99467 24-626)
T2 construct: extracellular domain; Bought protein; also called soluble human CD180 from Sino Biologics; human CD180(ECD)-HIS; not shown: His tag
T2 sequence (looked up): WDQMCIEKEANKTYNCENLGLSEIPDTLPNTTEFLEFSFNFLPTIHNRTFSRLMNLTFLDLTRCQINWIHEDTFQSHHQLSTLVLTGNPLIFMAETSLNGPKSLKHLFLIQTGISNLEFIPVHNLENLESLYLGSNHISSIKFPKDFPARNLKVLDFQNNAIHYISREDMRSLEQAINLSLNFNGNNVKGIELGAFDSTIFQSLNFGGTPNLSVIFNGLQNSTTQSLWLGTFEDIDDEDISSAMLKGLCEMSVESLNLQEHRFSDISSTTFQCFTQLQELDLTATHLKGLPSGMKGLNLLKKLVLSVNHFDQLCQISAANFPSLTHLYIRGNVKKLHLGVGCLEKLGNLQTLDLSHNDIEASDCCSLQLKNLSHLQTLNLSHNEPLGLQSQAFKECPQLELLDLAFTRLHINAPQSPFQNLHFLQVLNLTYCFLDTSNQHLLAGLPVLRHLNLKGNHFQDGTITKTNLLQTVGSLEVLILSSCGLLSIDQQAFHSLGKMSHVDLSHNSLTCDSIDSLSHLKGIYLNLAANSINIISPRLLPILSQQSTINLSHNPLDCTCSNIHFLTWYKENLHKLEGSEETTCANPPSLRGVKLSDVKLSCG

T3: human CD180 extracellular domain (ECD) HIS-tagged protein (Creative Biomart, CD180-3900H) (human, UniProt Q99467 24-626)
T3 construct: extracellular domain; Bought protein; also called soluble human CD180 from Creative Biomart; not shown: His tag
T3 sequence (looked up): T2 sequence (looked up)

T4: human MD-1 on HEK293 cells (human, UniProt O95711 21-162)
T4 construct: whole, on cells; also called HEK293 expressing MD-1 only; MD-1 cells
T4 sequence (looked up): T1 sequence (looked up) 2

B1: Ab-014 (antibody, human IgG1, kappa, V domains shown)
VH: EVQLVESGGGLVQPGRSLRLSCTTSGFTFADYAMHWVRQTPGKGLEWVSGISWNGVTIDYADSVKGRFTISRDIAKNSLYLQMNSLRAEDTALYYCAKDIAYSRGYFQHWGQGTLVTVSS
VL: not shown
notes: also called CHAMPmAB-014
B2: Ab-007 (antibody, human IgG1, kappa, V domains shown)
VH: EVQLVESGGGVVRPGGSLRLSCAASGFTFDDYAMSWVRQAPGKGLEWVSDINWNGGTTSYADSVKGRFTISRDNAKNSLFLQMNSLRAEDTALYYCARKGRDTVVVKGYYYFSYYMDVWGKGSTVTVSS
VL: not shown
notes: also called ChampmAb-007; Champ mAb-007
B3: Ab-008 (antibody, human IgG1, kappa, V domains shown)
VH: B1 VH with K43Q, V56G, I58M, D59G
VL: DIQMTQSPSSLSASVGDRVTITCRASQGIRNDLGWYQQKPGKAPKLLIYAASTLQSGVPSRFSGSGSGTDFTLTISSLQPEDVATYYCQKYNSAPFTFGPGTKVDIKR
B4: Ab-012 (antibody, human IgG1, kappa, V domains shown)
VH: B1 VH with K43Q, V56G, I58M, D59G
VL: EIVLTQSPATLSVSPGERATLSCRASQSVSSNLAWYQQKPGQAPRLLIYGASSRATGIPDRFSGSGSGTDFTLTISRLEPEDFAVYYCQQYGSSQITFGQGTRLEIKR
B5: Ab-016 (antibody, human IgG1, kappa, V domains shown)
VH: B1 VH with V56G, D59G
VL: not shown
B6: Ab-017 (antibody, human IgG1, kappa, V domains shown)
VH: B1 VH with K43Q, V56G, I58M, D59G
VL: not shown
B7: Ab-010 (antibody, human IgG1, kappa, V domains shown)
VH: B1 VH with R16G, T24S, V56G, I58F, A88V
VL: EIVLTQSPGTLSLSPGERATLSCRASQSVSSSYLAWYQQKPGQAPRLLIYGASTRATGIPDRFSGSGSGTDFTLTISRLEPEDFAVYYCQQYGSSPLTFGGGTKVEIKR
B8: Ab-006 (antibody, human IgG1, kappa, V domains shown)
VH: EVQLVESGGGLVKPGGSLRLSCTASGFTFDDYDMTWVRQAPGKGLEWVSGINWNGGNTDYADSVKGRFTISRDNTKNSLYLQMNSLRAEDTALYYCARKGRDIVVVKGFYYHYYYMDVWGKGITVTVSS
VL: not shown
notes: also called ChampmAb-006; Champ mAb-006
B9: Ab-003 (antibody, human IgG1, kappa, V domains shown)
VH: B1 VH with K43Q, V56G, I58M, D59G
VL: not shown
B10: Ab-005 (antibody, human IgG1, kappa, V domains shown)
VH: B1 VH with R16G, V56G, D59G
VL: not shown
B11: Ab-004 (antibody, human IgG1, kappa, V domains shown)
VH: B1 VH with R16G
VL: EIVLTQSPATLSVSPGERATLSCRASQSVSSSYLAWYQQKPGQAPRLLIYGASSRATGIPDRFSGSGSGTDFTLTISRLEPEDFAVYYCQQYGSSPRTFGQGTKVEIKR
notes: also called CHAMPmAB-004
B12: Ab-002 (antibody, human IgG1, kappa, V domains shown)
VH: EVQLVESGGGLVQPGGSLRLSCAASGFTSVDYAMHWVRQAPGKGLEWVSYISWNNNNIGYADSVKGRFTISRDNAKNSLYLHMSSLRAEDTALYYCAKDIAYNTGYFDYWGQGTLVTVSS
VL: not shown
B13: Ab-009 (antibody, human IgG1, kappa, V domains shown)
VH: B1 VH
VL: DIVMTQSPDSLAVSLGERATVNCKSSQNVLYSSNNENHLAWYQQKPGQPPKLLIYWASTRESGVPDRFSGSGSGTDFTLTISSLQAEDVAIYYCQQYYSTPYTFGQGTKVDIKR

The first test concerns the target T1, human CD180/human MD-1 on HEK293 cells. As to the kind of experiment: cell binding on HEK293 CD180/MD-1 cells (FIG. 14G). As to the method:
Cells were then incubated with the secondary antibody R-Phycoerythrin AffiniPure Goat Anti-Human IgG (Jackson Immunoresearch 109-115-098). The data was acquired on Intellicyt iQue3 VBR. Median fluorescence intensities (MFI) were plotted against the concentrations of the anti-CD180 antibodies.
By EC50 is commonly meant the concentration giving half of the maximal effect. B1 showed an EC50 of 4 nM.

The next test has the same target. As to the kind of experiment: cell-based ELISA / flow cytometry, HEK293 expressing CD180/MD-1, 100 nM and 30 nM. As to the method: (§1) FIGS. 1A-IC show the cell binding properties of the anti-CD180 antibodies. All CHAMP mAbs were subjected to binding assays via cell-based ELISA. FIG. 1A: Antibodies were screened at […] and 30 nM in a cell-based ELISA using HEK293 expressing CD180/MD-1. […] P84, mouse IgG, and 2nd only mouse were negative controls. […] FIG. 1B: Antibodies were screened at […] in cell-based ELISA using HEK293 expressing MD-1 only. […] FIG. 1C: Antibodies were screened at […] in cell-based ELISA using HEK293 parental cell line.
(§2) All mAbs were subjected to cell binding screen detected on a flow cytometer. Engineered cells expressing CD180/MD-1, MD-1, or parental HEK cells were used to test for binding of the antibodies. Antibodies at a concentration of 100 nM or 30 nM were incubated with cells at 4° C. for 45 min. R-Phycoerythrin AffiniPure Goat Anti-Human IgG (Jackson Immunoresearch 109-115-098) was used as the secondary antibody. The binding of antibodies on cells were detected on Intellicyt iQue3 VBR.
A general note: An ELISA detects its analyte on a solid surface through an enzyme-linked reagent.
As to B2, the binding result was “binds”.

Take B3: the binding result is “binds”.

For B4, the binding result is listed as “binds”.

As for B5, the binding result was “binds”.

Take B6: the binding result was “binds”.

Consider B7, for which the binding result is reported as “binds”.

The target of a further test is T2, human CD180 extracellular domain (ECD) …. As to the kind of experiment: SPR, antibody captured in a bivalent format, soluble human CD180 from Sino Biologics passed over (FIG. 3A). How it is done:
(§3) FIGS. 3A-3C show intrinsic binding affinity of the antibodies as determined by Surface Plasmon Resonance (SPR) assay. Antibody was captured in a bivalent format and soluble human CD180 from Sino Biologics (FIG. 3A), Creative Biomart (FIG. 3B), or soluble rhesus CD180 (FIG. 3C) was passed over the captured antibody. […] Kon, koff and KD are indicated for each condition.
(§4) Surface Plasmon Resonance (SPR) was used to identify intrinsic binding affinity. Kinetic experiments were performed on Carterra LSA with a running buffer of PBS pH 7.40, 1% BSA, 0.05% Tween20. Antibodies were captured on an anti-human Fc capture chip prepared with a HC30M chip. […] For each concentration, there was 5 min association followed by 15 min dissociation. Results were processed and analyzed in Carterra LSA Kinetics Software. The kinetic data was referenced with the interstitial reference spots and double-referenced to a buffer cycle, and then fit globally to a 1:1 binding model to determine their apparent association and dissociation kinetic rate constants (kₒₙ and koff values). The ratio koff/kₒₙ was used to derive the KD value of each antigen/mAb interaction, i.e., KD=koff/kₒₙ.
Background: In SPR one partner is held on a chip, and binding of the other changes the refractive index at the surface.
As for B2, the binding result was “binds”.

On to B8, for which the binding result was “binds”.

The next test addresses T3, human CD180 extracellular domain (ECD) …. As to the kind of experiment: SPR, antibody captured in a bivalent format, soluble human CD180 from Creative Biomart passed over (FIG. 3B). As to the method: as §3, §4
For the molecule B2, the binding result is “binds”.

As to B8, the binding result is reported as “binds”.

The target of the next test is T1, human CD180/human MD-1 on HEK293 cells. As to the kind of experiment: cell binding screen by flow cytometry, cells expressing CD180/MD-1, 100 nM or 30 nM. How it is done: as §1, §2
As to B9, the binding result was “binds”.

On to B10, for which the binding result was “binds”.

For the molecule B11, the binding result is “binds”.

Consider B12, for which the binding result is recorded as “binds”.

Take B8: the binding result is reported as “binds”.

In another test the target is T4, human MD-1 on HEK293 cells. As to the kind of experiment: cell binding screen by flow cytometry (called cell-based ELISA), HEK293 expressing MD-1 only. How it is done:
as §1, §2
Background: In flow cytometry, cells or beads pass a laser one at a time.
As to B2, the binding result is “no binding (tested: 100 nM)”.

With B3, the binding result is “no binding (tested: 100 nM)”.

As to B4, the binding result is listed as “no binding (tested: 100 nM)”.

Regarding B5, the binding result is given as “no binding (tested: 100 nM)”.

For the molecule B13, the binding result is listed as “no binding (tested: 100 nM)”.

With B9, the binding result was “no binding (tested: 100 nM)”.

Regarding B1, the binding result is on record as “no binding (tested: 100 nM)”.

With B10, the binding result is “no binding (tested: 100 nM)”.

As for B11, the binding result was “no binding (tested: 100 nM)”.

Consider B6, for which the binding result is reported as “no binding (tested: 100 nM)”.

Regarding B7, the binding result is “no binding (tested: 100 nM)”.

As to B12, the binding result is on record as “no binding (tested: 100 nM)”.

Regarding B8, the binding result is reported as “no binding (tested: 100 nM)”.
